Laboratory results reported in the supplement of paper PMC11502859.
Values joined by “and” are separate entries in the source; they are usually repeats but may differ in a detail not shown here. Identical values can stand only once.

Tested on: HEK293T
Assay: median enrichment of reporter reads in eGFP-reduced (low/intermediate) vs eGFP-high sorted cells (eGFP-extension fusion abundance) (ratio); higher = stronger loss of eGFP-fusion protein abundance (more destabilising extension)
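Also: lentiviral eGFP-IRES-mCherry reporter pool sorted by FACS 96 h post-transduction, gated on mCherry-high cells, Illumina read counts normalized per million, median across four biological replicates.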

EIF2AK2, sequence (chain, as listed by the source): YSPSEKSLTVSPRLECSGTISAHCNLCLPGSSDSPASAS

| Substance | median enrichment |
| --- | --- |
| CNTM [STAP1] | 0.724 |
| CPADTLPPPAPSTLSWAPPYLNL [NGF] | 0.552 |
| CPAVGMAGLPGQTR [SLC25A10] | 0.543 |
| CPCSRVSQGHFAATAAFPEIKQPGAVASELRGAGGRARTLGLGHGALSLKATFLTYSLYITQRP [CTNS] | 3.76 |
| CPDHGQGLPPCAPQLSPSKCVLRASLFFTAAATFPHCLRCREGQVPASTGISDKPRAQPTRGSSLHAHTGYGDGGLQVSSARG [SSNA1] | 7.23 |
| CPLNAANSASRTPNNSA [OR2AT4] | 0.496 |
| CPLSATHVVPSLPSFHLDVPPSPTSAPLLPRLDLKPELPLNLEYATYNMQAAKHPFCTRRLEWNCHVQ [PRR20A] | 5.57 |
| CPQPGY [B3GNT7] | 0.431 |
| CPSGPPLPLGQGNQLLRDFSCLEGAVIAPPHCPTVLLGL [FBXW4] | 12.6 |
| CPVPARQKEQCQPHQDRWGFESALIWVCLGAPA [SLC37A3] | 5.61 |
| CQFKEKKM [PHTF2] | 0.408 |
| CQKHKMMQCGPPCTFCNVIAVNGKTIALLKTHL [MARCH11] | 12.3 |
| CQLLHILGPCLFSQDRLLKAEEPVLGAPSQTPKTCFHVPRSLLTSPNKGP [PSENEN] | 26.4 |
| CQVLCGAEIPCRHFACSNQQDPAPRSPGAIIMQPAVLLWRGQVTFQKTPSWMGLPFCSSPHSRISNGSLL [BCL2L11] | 11 |
| CRALMSPTRKLTPNKRLPFPLGFFVLFLSKRDR [IPO5] | 4.2 |
| CRDLAERWRSHQGPRDNYQEQKPLPVPH [IGSF22] | 3.87 |
| CRFLLKLTLFHLSF [VHL] | 24.3 and 30.2 |
| CRKVSKNVNIL [C2orf49] | 0.739 |
| CRL [ACADSB] | 4.42 |
| CRRPPGGGSGGRCVDPTASSSY [FRAT2] | 0.875 |
| CRRQKISFVQKSKMKRM [INSIG2] | 3.96 |
| CRSWRTLGPRPAPIAGGR [MKNK2] | 8.08 |
| CRVAFFLL [GTF2A1] | 11 |
| CRVSLWPLSGIPGGRGGEGGTHIVNS [BDH1] | 6.12 |

| Substance | median enrichment |
| --- | --- |
| CSDGGWSLSESSALPSPGDEGNSLCFAEKILWINTEAPATPEGWRLLSLPILQSGSKPSKTAPEHCFSWVQS [C3orf52] | 13.3 |
| CSDVPFIYNNVKCNCLVP [TCP1] | 4.71 |
| CSFPVPSHYSPKLGKGGGTYEKNSSGFITDWE [CNOT9] | 3.28 |
| CSFQRNMVSGQKDC [ZNF831] | 0.731 |
| CSLG [MAGEC2] | 0.658 |
| CSLHLGGGSLGKSTQTCTTVQQQGSLLPAVPPPPVYTT [SEZ6] | 19.3 |
| CSPMPAHL [CDNF] | 7.02 |
| CSQVGFA [TUSC3] | 0.572 |
| CSSVYELPFHSAFRNYILAFIFNLPTYFK [ATM] | 8.5 |
| CSWSRG [MLIP] | 6.67 |
| CTKAWA [IFNGR2] | 0.778 |
| CTLGAVSSKSL [ZFC3H1] | 0.779 |
| CTRAGGGAERGAPPPLRSLALSRPSCSLSNF [POU3F2] | 4.86 |
| CTTQDTHSTCMNNTGHTQARA [CCDC40] | 1.14 |
| CVAGVEVLIEYDRRMTITLSAQCG [OR10H2] | 6.41 |
| CVARALGVLLEAPRASRIASQLPGQPTLLQPLTRTPVIRTGAPVPWSPPWAHVLTQAQQ [OVOL1] | 8.09 |
| CVETCAPRRGAAVREGLCTAAPATDPVRKYLLGASPGLGLGMRWSPGLSFLSTQWVILASTCRAPCQALPTHLPV [OLFML2A] | 7.4 |
| CVF [LYRM7] | 0.777 |
| CVSSFTDSPQPFSCLKT [DPH6] | 3.83 |
| CVSYSSSMLGIPTAATMILVPERAMLLFQLV [MTMR8] | 23.9 |
| CVTVLDFSKTSFNTE [GABRB3] | 4.69 |
| CVWGLAPCSPGPHCSHTLRLGPPSLLWC [TOM1] | 9.33 |
| CYSFQLLPLCLPG [TRIM55] | 7.06 |
| CYSK [FAM162B] | 0.641 |

| Substance | median enrichment |
| --- | --- |
| DDD [Asp03] | 0.645 |
| DDDD [Asp04] | 0.37 |
| DDDDD [Asp05] | 0.224 |
| DDDDDD [Asp06] | 0.38 |
| DDDDDDD [Asp07] | 0.338 |
| DDDDDDDD [Asp08] | 0.299 |
| DDDDDDDDD [Asp09] | 0.213 |
| DDDDDDDDDD [Asp10] | 0.433 |
| DISSYLTMLSLLGAVLVGPGPCIMPRSQLQGPSWGPGWALGSGPCCSSPSHQPVPVVRKPGLLSSFLLGECQTQGPSTGLGWE [BAP1] | 5.92 |
| DLASKKSCSVPCVLSFKGIFRINSDLEDSSVLQRLAFIFIVIMEMLSFILSYIRKKGVMQLISISLGNALVLFSSFLVPVTCL [CREB5] | 14 |
| DNPHPHCFWGSLSHLSHPVSCLCLSWCLSGLLSVSFCLSVSLPTPAPSFQCSGWLSLPFSPSLSALGSVSTAGPKVKVLPLPE [CCDC97] | 5.65 |
| DPTPLWGSGTLHCTGSLHTGRGTCAPTSETCRSPQLTCPTGAQHCTQLVGRTRACLRELPAGVMQGGGEVQGRGAGLSCHQHF [MAP3K11] | 2.41 |
| DQPHSAQEAASGVGAQRGTAASSTAGCGAAGPGPSAWAAEYIFYLSETSIFLGSNPTCHHVDISSYLTMLSLLGAVLVGPGPC [BAP1] | 4.59 |
| EAKSRCTQHVLGMQPQEVPDLKQPDSYLA [GREM1] | 0.305 |
| EATKRPGFSSCCHQLALWPRARCLPFMFPHLQSELVVPDDLRSHDLLTCPMILYFVGRSIKQLLLLLCANHSCNFCSAYLPLF [ADAMTSL1] | 5 |
| EAWLPPESCSLKLGF [POU2AF1] | 0.528 |
| ECDKVQPSDLIIHKIIYT [ZNF679] | 8.95 |
| ECLSIKSGFAP [NPL] | 0.687 |
| ECPARAAAPATLPRVAFRAAPRVGNLGARGGRLGVPFFFSFSFAFRLFYFFLK | 15.7 |
| ECPLFLFLLSPFSSLRSIGPLLSIFITRCFPLKHAHATVTKTNNYHFPNFIQNHFSVFLFPTPPTTFNDEIP [PHYHIPL] | 15.5 |
| EDPGTQRLCPPRPQSVPITLTVLHTVHAPLLAFFREKENFTTGSH [SERTAD2] | 6.58 |
| EDTPSPDSTGNRSSPDSPPRRASPRPCTGSEASVTLPLCSPVP [KDM2A] | 0.106 |
| EEE [Glu03] | 9.28 |
| EEEE [Glu04] | 8.36 |

| Substance | median enrichment |
| --- | --- |
| EEEEE [Glu05] | 1.41 |
| EEEEEE [Glu06] | 1.59 |
| EEEEEEE [Glu07] | 1.23 |
| EEEEEEEE [Glu08] | 0.411 |
| EEEEEEEEE [Glu09] | 0.433 |
| EEEEEEEEEE [Glu10] | 0.42 |
| EEESLPPPKYWAALSLPRDHPSLPAMCTIMTNLFGYAVVLPFWGLGSTRRLCLQCRNLFSLCVAGARAQGPCLCIFNKYSFSK [GPR108] | 0.994 |
| EEITRWHQPRALARYGEGTWGPHLPPGLFREDPTVTPPSAVGAWRWAAGLNPPWGAPFLLPICVYIHK [MEF2B] | 6.73 |
| EESATNYNFTIKTGKRPGMVAHACNHSTLGG [OR6C6] | 6.68 |
| EETTHPEPQHCLTLGTRDPTEMFWRAGGFPQSPPSSSPSNQSCV [SERPINA6] | 0.705 |
| EFFLELKHPRMPLHVFHSPHLQTSLLFLTRPESKLPSLGNSGEGVSCTTYHTPSHPVSDFGMDSGKLGPSLNRVMYLNVCYFQ [HSPA1L] | 5.31 |
| EFIFKRFSECAQNTWLK [TRMT10C] | 5.59 |
| EFILERNSTNVKNVTKLLSISLTLLHIRKFILEKNPTDVKNVAKPLSTPLNLLHIRDFILERNPTDVNNVVKLFTYPHTLLHI [ZNF626] | 2.95 |
| EFILMKENVTKEMHEM [MYH4] | 2.79 |
| EFK [BBS9] | 0.267 |
| EFLSHSPTSTTTGQLSPFPTL [RNASE13] | 0.565 |
| EGGALCLCLPV [CTSE] | 7.51 |
| EGLATPVKAVLLLDTISSSGRAVERESNFLLEEYLCLLTLN [CDC14A] | 6.01 |
| EGLPFPKPRVMSNCNQAQNQRPGCEIHTSLELVVSSWPQQLFPVLTG [PHF11] | 7.37 |
| EGN [CYTL1] | 0.312 |
| EGPPCICT [PDK2] | 1.79 |
| EGTLQSLFHIFKPH [HMCN1] | 7.78 |
| EHH [SPRR2G] | 0.297 |
| EHQETLE [KLHL14] | 0.343 |

| Substance | median enrichment |
| --- | --- |
| EHVGSVPTQCFGKCKI [DNAH5] | 0.681 |
| EIF2AK2 | 2.12 |
| EIKCTRSQ [NLRC4] | 9.53 |
| EILGSKYTSLFKNSNLI [OR10G4] | 11.8 |
| EILSLAAICKGS [TET2] | 18.6 |
| EIPQHGSLMFICCLSFLLSFPVCFQFSTSSAHPVLCPFVCVRTI [PCLO] | 8.91 |
| EKHLKC [FAN1] | 0.297 |
| EKLVLCSG [ZDBF2] | 5.06 |
| EKPSRRKNSLSQFSKEPRILQRMCEDFPVLDGE [SAMD7] | 1.53 |
| EKSYMAKRSRSKFRSHSQGNQYLPI [SNX24] | 1.3 |
| EKTVCKRSGVQEITSFDRSMYRKFKFCLRLHKLGAFLRCFSCSNLFVS [SRSF3] | 10 |
| EKYHLPYAARDLQTFFLPFW [SPAG11A] | 6.64 |
| ELLGQRLKPQDPCCPSRSFFLESQGKPFRAAPPSGQKLK [ALG1] | 3.82 |
| ELLPLSTRSSWQRELRTAAALSVRWRPTSRFCPALCG [ACVR1B] | 9.04 |
| ELLTAFPKALLQKRSMSVIITWLSNLFHSMEPWRRKTLSYFVTQPGIGLFGPTRFPSPEELPRPGDQC [GRM7] | 6.76 |
| ELPGLGGLSGIAMLVAREKKSTANKTTQTKPSTA [FOXA1] | 1.47 |
| ELQEAN [GZMB] | 0.208 |
| ELQQKNLHCYIRYRYKMQKKHQEFCLLFYFIFKLQEVFSSWDNLVLLLSIICQFLCILNKINIELK [WDR49] | 2.64 |
| ELSASARRASLPNQPWVPGSRLEPAINSLFLAPGSNGGPHLRTSGEAIAPSGEVMHFLSTYCLPGPRAHGEETWAHPCRKRDN [TSSK6] | 3.11 |
| ELSF [ADHFE1] | 0.232 |
| EMALSPPRSWGQ [Degron APPBP2] | 10.9 |
| EMCNLISLFHHNHDRW [C9orf72] | 9.03 |
| ENSSSTMDFRLLVAVLT [ELF2] | 7.29 |
| EPGNPYSFSNTGSFI [ADAM30] | 0.267 |
